Data from US20200392198A1 (UNIVERSITY OF COPENHAGEN, published 2020).
Where a chain is given by its changes, count along the chain named. Ends that are not written are not given here. * marks the point of attachment. Palmitoyl = CCCCCCCCCCCCCCCC(=O)*; Lauroyl = CCCCCCCCCCCC(=O)*

T1: human GIP receptor (human, UniProt P48546 22-466)
T1 sequence (looked up): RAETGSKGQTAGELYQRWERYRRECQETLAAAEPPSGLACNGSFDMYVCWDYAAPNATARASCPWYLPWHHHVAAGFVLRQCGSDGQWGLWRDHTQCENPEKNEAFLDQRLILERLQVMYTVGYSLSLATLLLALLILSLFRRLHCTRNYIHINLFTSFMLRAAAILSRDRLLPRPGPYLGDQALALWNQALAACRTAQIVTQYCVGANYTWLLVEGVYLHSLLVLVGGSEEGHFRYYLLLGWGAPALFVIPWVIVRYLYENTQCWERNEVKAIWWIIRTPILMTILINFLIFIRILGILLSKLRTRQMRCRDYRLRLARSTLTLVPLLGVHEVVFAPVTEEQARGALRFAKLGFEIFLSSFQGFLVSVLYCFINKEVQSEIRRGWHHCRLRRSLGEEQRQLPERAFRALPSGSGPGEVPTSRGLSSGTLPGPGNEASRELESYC

T2: human GLP-2 receptor (human, UniProt O95838 1-553)
T2 sequence (looked up): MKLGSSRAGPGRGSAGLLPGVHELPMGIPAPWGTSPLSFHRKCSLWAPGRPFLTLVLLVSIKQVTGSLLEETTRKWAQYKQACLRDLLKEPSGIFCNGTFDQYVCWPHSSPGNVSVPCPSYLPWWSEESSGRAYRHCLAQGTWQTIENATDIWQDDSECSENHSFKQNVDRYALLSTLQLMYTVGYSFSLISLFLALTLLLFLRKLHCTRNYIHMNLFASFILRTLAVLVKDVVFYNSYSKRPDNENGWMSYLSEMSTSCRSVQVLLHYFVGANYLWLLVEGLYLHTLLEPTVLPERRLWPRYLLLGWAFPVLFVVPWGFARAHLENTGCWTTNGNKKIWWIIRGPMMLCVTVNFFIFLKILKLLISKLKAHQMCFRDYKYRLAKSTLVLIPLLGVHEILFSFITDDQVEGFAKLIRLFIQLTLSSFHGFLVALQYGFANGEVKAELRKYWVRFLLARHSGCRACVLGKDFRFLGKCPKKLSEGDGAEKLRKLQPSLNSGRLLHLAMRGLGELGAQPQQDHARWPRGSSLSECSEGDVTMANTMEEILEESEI

B1: GIP-GLP-2 co-agonist 22 (peptide)
peptide: HADGTFSSDYSTILDNLAARDFINWLIQTKITD
modifications: not fully specified (residue 1, N-terminus); also: C16 acyl group on His 1 (attachment site not given here)
B2: GIP-GLP-2 co-agonist 29 (peptide)
peptide: B1 peptide with S7I, D33K
modifications: not fully specified (residue 1, N-terminus); also: C16 acyl group on His 1 (attachment site not given here)

These binders were tested against T1, human GIP receptor (assay: cell-based or functional assay).

Binder	EC50 (cAMP) [nM]	Emax (10 µM), % of native GIP [%]	fold (EC50 vs native GIP) [fold]	logEC50 (cAMP)
HADGTFISDYSTILDNLAARDFINWLIQTK(Palmitoyl)ITK [GIP-GLP-2 co-agonist 31]	1.7	91	19	-8.77
HADGTFSSDYSTILDNLAARDFINWLIQTK(Palmitoyl)ITD [GIP-GLP-2 co-agonist 23]	0.76	81	8.5	-9.12
HADGTFSSDYSTILDNLAAKDFINWLIQTKITD [GIP-GLP-2 co-agonist 20]	0.59	98	6.6	-9.23
HADGTFISDYSTIKDNLAARDFINWLIQTKITK [GIP-GLP-2 co-agonist 25]	0.44	92	4.9	-9.36
HADGTFISDYSTILDNLAARDFINWLIQTKITK (C16 acyl group on Lys 33 (K(c16/33), 'with C16 pos 33')) [GIP-GLP-2 co-agonist 33]	0.32	100	3.6	-9.5
HADGTFISDYSTILDNLAARDFINWLIQTKITK (C12 acyl group on Lys 33 (K(C12/33), 'with C12 pos 33')) [GIP-GLP-2 co-agonist 32]	0.15	100	1.7	-9.81
HADGTFISDYSKILDNLAARDFINWLIQTKITK [GIP-GLP-2 co-agonist 24]	0.15	100	1.7	-9.82
HADGTFISDYSTILDNLKARDFINWLIQTKITK [GIP-GLP-2 co-agonist 27]	0.55	100	6.2	-9.26
B1	0.41	100	4.6	-9.39
B2	1.82	115	20	-8.74
HADGTFISDYSTILDKLAARDFINWLIQTKITK [GIP-GLP-2 co-agonist 26]	0.03	100	0.34	-10.5
HADGTFISDYSTILDNLAAKDFINWLIQTKITK [GIP-GLP-2 co-agonist 28]	0.2	100	2.2	-9.7
HADGSFSDEMNTILDNLAARDFINWLIQTKITD (ligand) [human native GLP-2]	56	22	–	-7.25
HADGTFSSDYSTILDNLAAK(Palmitoyl)DFINWLIQTKITD [GIP-GLP-2 co-agonist 21]	34	94	381	-7.47
HADGTFISDYSTILDNLAARDFINWLIQTK(Lauroyl)ITK [GIP-GLP-2 co-agonist 30]	0.63	100	7.1	-9.2

These binders were tested against T2, human GLP-2 receptor (assay: cell-based or functional assay).

Binder	EC50 (cAMP) [nM]	Emax (10 µM), % of native GLP-2 [%]	fold (EC50 vs native GLP-2) [fold]	logEC50 (cAMP)
HADGTFISDYSTILDNLAARDFINWLIQTK(Palmitoyl)ITK [GIP-GLP-2 co-agonist 31]	107	91	89	-6.97
HADGTFSSDYSTILDNLAARDFINWLIQTK(Palmitoyl)ITD [GIP-GLP-2 co-agonist 23]	1.4	57	1.2	-8.85
HADGTFSSDYSTILDNLAAKDFINWLIQTKITD [GIP-GLP-2 co-agonist 20]	1.2	80	1	-8.92
HADGTFISDYSTIKDNLAARDFINWLIQTKITK [GIP-GLP-2 co-agonist 25]	3.5	92	2.9	-8.46
HADGTFISDYSTILDNLAARDFINWLIQTKITK (C16 acyl group on Lys 33 (K(c16/33), 'with C16 pos 33')) [GIP-GLP-2 co-agonist 33]	13	82	11	-7.89
HADGTFISDYSTILDNLAARDFINWLIQTKITK (C12 acyl group on Lys 33 (K(C12/33), 'with C12 pos 33')) [GIP-GLP-2 co-agonist 32]	6.2	91	5.1	-8.21
HADGTFISDYSKILDNLAARDFINWLIQTKITK [GIP-GLP-2 co-agonist 24]	0.74	96	0.62	-9.13
HADGTFISDYSTILDNLKARDFINWLIQTKITK [GIP-GLP-2 co-agonist 27]	0.56	100	0.47	-9.25
B1	1.3	72	1.1	-8.88
B2	17	82	14	-7.76
HADGTFISDYSTILDKLAARDFINWLIQTKITK [GIP-GLP-2 co-agonist 26]	0.31	100	0.26	-9.51
HADGTFISDYSTILDNLAAKDFINWLIQTKITK [GIP-GLP-2 co-agonist 28]	1.2	112	0.98	-8.93
HADGTFSSDYSTILDNLAAK(Palmitoyl)DFINWLIQTKITD [GIP-GLP-2 co-agonist 21]	6	75	5	-8.22
HADGTFISDYSTILDNLAARDFINWLIQTK(Lauroyl)ITK [GIP-GLP-2 co-agonist 30]	36	73	30	-7.44

Molecular target: T1, human GIP receptor
Assay: cell-based or functional assay
Remark: another data set of the same source

Binder	EC50 (cAMP) [nM]	Emax (10 µM), % of native GIP [%]	fold (EC50 vs native GIP) [fold]	logEC50 (cAMP)
HGDGTFISDYSTILDNLAARDFINWLIQTKITD [GIP-GLP-2 co-agonist 11]	3.2	95	36	-8.5
HADGSFSDEMNTILDNLAARDFINWLIQTKITD (ligand) [human native GLP-2]	56	22	–	-7.25

Molecular target: T2, human GLP-2 receptor
Assay: cell-based or functional assay
Remark: another data set of the same source

Binder	EC50 (cAMP) [nM]	Emax (10 µM), % of native GLP-2 [%]	fold (EC50 vs native GLP-2) [fold]	logEC50 (cAMP)
HGDGTFISDYSTILDNLAARDFINWLIQTKITD [GIP-GLP-2 co-agonist 11]	24	87	20	-7.62
